In patent US20030236197A1 (PRAECIS PHARMACEUTICALS, published 2003):
Square brackets hold non-standard residues; d marks the D form. Ends that are not written are not given here. * marks the point of attachment. dPhe(F5) = N[C@H](Cc1c(F)c(F)c(F)c(F)c1F)C(=O)O; dPhe(4-F) = N[C@H](Cc1ccc(F)cc1)C(=O)O; NHiPr = CC(C)N*

B1: PPI-970: TFA • N-isopropyl-(Gaffvl)-NH2 (peptide)
peptide: G[dA][dF][dF][dV][dL]-NH2
modifications: not fully specified (N-terminus); printed as N-isopropyl-(Gly-D-Ala-D-Phe-D-Phe-D-Val-D-Leu)-NH2; also: TFA salt
B2: PPI-1125: 2 TFA • H-lvf-NH-NH-fvl-H (peptide)
peptide: H-[dL]-[dV]-[dF]
modifications: also: dimer: C-termini of two tripeptides joined through hydrazine (-NH-NH-), 2 TFA salt

The binders below were run against T1, Aβ1-40 peptide (monomeric start material of the nucleation assay) (assay: cell-based or functional assay).
For {N,N‑dimethyl}-G[dA][dF][dF][dV][dL]-NH2 (also: TFA salt) [PPI-803: TFA • N,N-dimethyl-(Gaffvl)-NH2], the “Nucleation assay Δ lag at 1.25 µM compound” value was < 1 ratio of lag time to control, the “Nucleation assay Δ lag at 2.5 µM compound” value was < 1 ratio of lag time to control and the “Nucleation assay Δ lag at 5 µM compound” value was < 1 ratio of lag time to control. With B1 the “Nucleation assay Δ lag at 1.25 µM compound” value was 1 ratio of lag time to control, the “Nucleation assay Δ lag at 2.5 µM compound” value was > 5 ratio of lag time to control and the “Nucleation assay Δ lag at 5 µM compound” value was > 5 ratio of lag time to control. For H-[dL][dV][dF][dF][dA]-NHiPr (also: TFA salt) [PPI-992: TFA • H-(lvffa)-isopropylamide], the “Nucleation assay Δ lag at 1.25 µM compound” value was 1 ratio of lag time to control, the “Nucleation assay Δ lag at 2.5 µM compound” value was 1 ratio of lag time to control and the “Nucleation assay Δ lag at 5 µM compound” value was 3 ratio of lag time to control. In the case of H-[dL][dV][dF][dF][dA]-NMe2 (also: TFA salt) [PPI-993: TFA • H-(lvffa)-dimethylamide], the “Nucleation assay Δ lag at 1.25 µM compound” value is reported as 1 ratio of lag time to control, the “Nucleation assay Δ lag at 2.5 µM compound” value is reported as 1 ratio of lag time to control and the “Nucleation assay Δ lag at 5 µM compound” value is reported as 1 ratio of lag time to control. In the case of {N,N‑diethyl}-G[dA][dF][dF][dV][dL]-NH2 (also: TFA salt) [PPI-1005: TFA • N,N-diethyl-(Gaffvl)-NH2], the “Nucleation assay Δ lag at 1.25 µM compound” value is reported as 1 ratio of lag time to control, the “Nucleation assay Δ lag at 2.5 µM compound” value is reported as 3 ratio of lag time to control and the “Nucleation assay Δ lag at 5 µM compound” value is reported as 3 ratio of lag time to control. {N,N‑diethyl}-[dA][dF][dF][dV][dL]-NH2 (also: TFA salt) [PPI-1006: TFA • N,N-diethyl-(affvl)-NH2] was tested, and the “Nucleation assay Δ lag at 1.25 µM compound” value was 1 ratio of lag time to control, the “Nucleation assay Δ lag at 2.5 µM compound” value was 1 ratio of lag time to control and the “Nucleation assay Δ lag at 5 µM compound” value was 1 ratio of lag time to control. {N,N‑dimethyl}-[dL][dV][dF][dF][dL]-NH2 (also: TFA salt) [PPI-1007: TFA • N,N-dimethyl-(lvffl)-NH2] was tested, and the “Nucleation assay Δ lag at 0.3 µM compound (row marked *: measured at 3, 1 and 0.3 µM)” value was 3 ratio of lag time to control, the “Nucleation assay Δ lag at 0.6 µM compound (row marked #: measured at 2.5, 1.25 and 0.6 µM)” value was 1.5 ratio of lag time to control and the “Nucleation assay Δ lag at 1 µM compound (row marked *: measured at 3, 1 and 0.3 µM)” value was 4 ratio of lag time to control. For the same binder, the “Nucleation assay Δ lag at 1.25 µM compound (row marked #: measured at 2.5, 1.25 and 0.6 µM)” value was 1.5 ratio of lag time to control, the “Nucleation assay Δ lag at 2.5 µM compound (row marked #: measured at 2.5, 1.25 and 0.6 µM)” value was 1.5 ratio of lag time to control and the “Nucleation assay Δ lag at 3 µM compound (row marked *: measured at 3, 1 and 0.3 µM)” value was 4 ratio of lag time to control. In the case of {N,N‑dimethyl}-[dA][dF][dF][dV][dL]-NH2 (also: TFA salt) [PPI-913: TFA • N,N-dimethyl-(affvl)-NH2], the “Nucleation assay Δ lag at 1.25 µM compound” value is reported as 1 ratio of lag time to control, the “Nucleation assay Δ lag at 2.5 µM compound” value is reported as 1 ratio of lag time to control and the “Nucleation assay Δ lag at 5 µM compound” value is reported as 1 ratio of lag time to control. With {N‑methyl}-G[dA][dF][dF][dV][dL]-NH2 (also: TFA salt) [PPI-968: TFA • N-methyl-(Gaffvl)-NH2] the “Nucleation assay Δ lag at 1.25 µM compound” value was 2 ratio of lag time to control, the “Nucleation assay Δ lag at 2.5 µM compound” value was > 5 ratio of lag time to control and the “Nucleation assay Δ lag at 5 µM compound” value was > 5 ratio of lag time to control.

Target: T1, Aβ1-40 peptide (monomeric start …)
Test: cell-based or functional assay
Remark: another data set of the same source
With {N‑methyl}-[dL][dV][dF][dF][dL]-NH2 (also: TFA salt) [PPI-1019: TFA • N-methyl-(lvffl)-NH2] the “Nucleation assay data (Δ lag) at 0.6 µM compound (row marked *: measured at 2.5, 1.25 and 0.6 µM)” value was 2 ratio of lag time to control, the “Nucleation assay data (Δ lag) at 1.25 µM compound (row marked *: measured at 2.5, 1.25 and 0.6 µM)” value was > 2.5 ratio of lag time to control and the “Nucleation assay data (Δ lag) at 2.5 µM compound (row marked *: measured at 2.5, 1.25 and 0.6 µM)” value was > 2.5 ratio of lag time to control. In the case of H-[dL][dF][dPhe(4-F)][dV][dL]-NH2 (also: TFA salt) [PPI-1319: TFA • H-(lf-[p-F]f-vl)-NH2], the “Nucleation assay data (Δ lag) at 0.3 µM compound” value is reported as 1 ratio of lag time to control, the “Nucleation assay data (Δ lag) at 1 µM compound” value is reported as > 5 ratio of lag time to control and the “Nucleation assay data (Δ lag) at 3 µM compound” value is reported as > 5 ratio of lag time to control. For H-[dL][dF][dPhe(F5)][dV][dL]-NH2 (also: TFA salt) [PPI-1320: TFA • H-(lf-[F5]f-vl)-NH2], the “Nucleation assay data (Δ lag) at 0.3 µM compound” value was 1 ratio of lag time to control, the “Nucleation assay data (Δ lag) at 1 µM compound” value was 3 ratio of lag time to control and the “Nucleation assay data (Δ lag) at 3 µM compound” value was > 5 ratio of lag time to control. In the case of H-[dL][dF][dK][dV][dL]-NH2 (also: 2 TFA salt) [PPI-1321: 2TFA • H-(lfkvl)-NH2], the “Nucleation assay data (Δ lag) at 0.3 µM compound” value is reported as < 1 ratio of lag time to control, the “Nucleation assay data (Δ lag) at 1 µM compound” value is reported as < 1 ratio of lag time to control and the “Nucleation assay data (Δ lag) at 3 µM compound” value is reported as < 1 ratio of lag time to control. For B2, the “Nucleation assay data (Δ lag) at 0.6 µM compound (row marked *: measured at 2.5, 1.25 and 0.6 µM)” value was 2 ratio of lag time to control, the “Nucleation assay data (Δ lag) at 1.25 µM compound (row marked *: measured at 2.5, 1.25 and 0.6 µM)” value was > 2.5 ratio of lag time to control and the “Nucleation assay data (Δ lag) at 2.5 µM compound (row marked *: measured at 2.5, 1.25 and 0.6 µM)” value was > 2.5 ratio of lag time to control.
